Kd and koff data for one molecule are collected here from article PMC4882459.

This experiment concerns the target ES-62 (Acanthocheilonema viteae). Briefly: SPR; Biacore 3000; 300 RU of ES-62 amine-coupled to a CM5 chip; CRP 10 ug/ml to 20 ng/ml flowed at 10 ul/min; HBS with 1 mM CaCl2 and 0.005% P20, pH 7.4; Langmuir 1:1 analysis, ka and kd calculated separately; avidity.

B1: C-reactive protein (native, human) (natural protein)
chain: QTDMSRKAFVFPKESDTSYVSLKAPLTKPLKAFTVCLHFYTELSSTRGYSIFSYATKRQDNEILIFWSKDIGYSFTVGGSEILFEVPEVTVAPVHICTSWESASGIVEFWVDGKPRVRKSLKKGYTVGAEASIILGQEQDSFGGNFEGSQSLVGDIGNVNMWDFVLSPDEINTIYLGGPFSPNVLNWRALKYEVQGEVFTKPQLWP
Turning to B1, the Kd was 0.1 nM and the koff was 0.0006 to 0.0014 s⁻¹.
